Laboratory results as given in US20010018195.

What was measured:
[1] = molecular target: GST-c-IAP-1, Q13490
[2] = molecular target: GST-XIAP fusion protein, P98170
[3] = molecular target: GST-c-IAP-2, Q13489
GST-c-IAP-2, Q13489, sequence (Q13489 whole entry): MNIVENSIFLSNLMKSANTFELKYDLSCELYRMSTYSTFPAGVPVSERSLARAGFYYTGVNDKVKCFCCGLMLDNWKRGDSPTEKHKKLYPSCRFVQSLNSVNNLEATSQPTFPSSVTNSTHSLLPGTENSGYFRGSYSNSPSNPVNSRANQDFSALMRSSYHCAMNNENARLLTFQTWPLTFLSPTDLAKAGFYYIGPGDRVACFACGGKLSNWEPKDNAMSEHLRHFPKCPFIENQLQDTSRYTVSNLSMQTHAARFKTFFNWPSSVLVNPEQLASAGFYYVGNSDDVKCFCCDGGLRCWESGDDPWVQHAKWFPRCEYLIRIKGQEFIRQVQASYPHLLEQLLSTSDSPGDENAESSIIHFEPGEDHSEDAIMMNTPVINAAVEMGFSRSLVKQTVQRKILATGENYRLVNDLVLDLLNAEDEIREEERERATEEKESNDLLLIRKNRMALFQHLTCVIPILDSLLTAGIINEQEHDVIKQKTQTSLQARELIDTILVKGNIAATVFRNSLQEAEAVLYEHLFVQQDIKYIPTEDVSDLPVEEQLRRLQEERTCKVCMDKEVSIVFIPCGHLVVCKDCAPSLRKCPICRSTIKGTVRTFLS

GST-XIAP fusion protein, P98170, sequence (P98170 whole entry, the tested form may be a part): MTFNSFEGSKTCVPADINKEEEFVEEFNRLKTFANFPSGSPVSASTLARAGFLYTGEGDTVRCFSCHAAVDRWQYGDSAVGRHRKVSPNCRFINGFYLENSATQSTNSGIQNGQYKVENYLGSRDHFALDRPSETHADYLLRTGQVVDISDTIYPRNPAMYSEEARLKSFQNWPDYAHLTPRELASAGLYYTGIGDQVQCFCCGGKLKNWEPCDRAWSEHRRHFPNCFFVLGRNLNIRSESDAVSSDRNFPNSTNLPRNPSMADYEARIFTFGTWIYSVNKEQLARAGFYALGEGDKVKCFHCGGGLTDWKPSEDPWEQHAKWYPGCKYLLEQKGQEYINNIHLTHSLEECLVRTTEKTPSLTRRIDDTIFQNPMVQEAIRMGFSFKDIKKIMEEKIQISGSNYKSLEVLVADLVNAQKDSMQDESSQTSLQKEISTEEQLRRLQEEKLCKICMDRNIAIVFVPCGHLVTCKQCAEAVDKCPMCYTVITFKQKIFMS
GST-c-IAP-1, Q13490, sequence (Q13490 whole entry, the tested form may be a part): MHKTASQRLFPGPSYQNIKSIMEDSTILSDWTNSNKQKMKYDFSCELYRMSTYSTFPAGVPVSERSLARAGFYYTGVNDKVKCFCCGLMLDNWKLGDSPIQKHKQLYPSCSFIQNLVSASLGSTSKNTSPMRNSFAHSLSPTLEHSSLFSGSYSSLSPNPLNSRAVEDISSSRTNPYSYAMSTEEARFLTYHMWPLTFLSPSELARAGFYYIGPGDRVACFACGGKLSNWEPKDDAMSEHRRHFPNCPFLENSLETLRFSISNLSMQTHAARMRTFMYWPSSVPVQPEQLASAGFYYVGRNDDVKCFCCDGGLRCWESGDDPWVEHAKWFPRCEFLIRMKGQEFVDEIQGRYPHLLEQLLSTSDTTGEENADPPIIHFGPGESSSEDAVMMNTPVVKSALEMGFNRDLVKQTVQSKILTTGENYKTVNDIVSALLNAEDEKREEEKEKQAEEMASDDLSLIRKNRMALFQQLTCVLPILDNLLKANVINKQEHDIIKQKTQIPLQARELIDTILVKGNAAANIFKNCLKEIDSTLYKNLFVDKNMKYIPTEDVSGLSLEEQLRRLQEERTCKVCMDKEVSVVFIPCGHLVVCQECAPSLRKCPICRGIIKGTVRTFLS

Row | Protein | coupled reaction: pro-caspase-3 activation by caspase-9, Ac-DEVD-AFC hydrolysis [1] | cleavage of purified pro-caspase-3 by active caspase-9 (immunoblot) [2] | coupled reaction: pro-caspase-3 activation by caspase-9, Ac-DEVD-AFC hydrolysis [2] | coupled reaction: pro-caspase-3 activation by caspase-9, Ac-DEVD-AFC hydrolysis [3] | average ratio velocities (vi/vo) of DEVD-AFC hydrolysis [2] | substrate cleavage by purified caspase [2]
1 | purified recombinant active caspase-9 (His6-tagged) (protein) MDEADRRLLRRCRLRLVEELQVDQLWDALLSRELFRPHMIEDIQRAGSGSRRDQARQLIIDLETRGSQALPLFISCLEDTGQDMLASFLRTNRQAAKLSKPTLENLTPVVLRPEIRKPEVLRPETPRPVDIGSGGFGDVGALESLRGNADLAYILSMEPCGHCLIINNVNFCRESGLRTRTGSNIDCEKLRRRFSSLHFMVEVKGDLTAKKMVLALLELAQQDHGALDCCVVVILSHGCQASHLQFPGAVYGTDGCPVSVEKIVNIFNGTSCPSLGGKPKLFFIQACGGEQKDHGFEVASTSPEDESPGSNPEPDATPFQEGLRTFDQLDAISSLPTPSDIFVSYSTFPGFVSWRDPKSGSWYVETLDDIFEQWAHSEDLQSLLLRVANAVSVKGIYKQMPGCFNFLRKKLFFKTS | XIAP, c-IAP-1 and c-IAP-2 each efficiently inhibited pro-caspase-3 activation and cleavage of the tetrapeptide substrate | Addition of an equimolar concentration of XIAP relative to caspase-9 strongly inhibited cleavage of pro-caspase-3. | XIAP, c-IAP-1 and c-IAP-2 each efficiently inhibited pro-caspase-3 activation and cleavage of the tetrapeptide substrate | XIAP, c-IAP-1 and c-IAP-2 each efficiently inhibited pro-caspase-3 activation and cleavage of the tetrapeptide substrate |  | 
2 | purified recombinant caspase-6 (His6-tagged) (protein) chain 1: AFYKREMFDPAEKYKMDHRRRGIALIFNHERFFWHLTLPERRGTCADRDNLTRRFSDLGFEVKCFNDLKAEELLLKIHEVSTVSHADADCFVCVFLSHGEGNHIYAYDAKIEIQTLTGLFKGDKCHSLVGKPKIFIIQACRGNQHDVPVIPLDVVD chain 2: AASVYTLPAGADFLMCYSVAEGYYSHRETVNGSWYIQDLCEMLGKYGSSLEFTELLTLVNRKVSQRRVDFCKDPSAIGKKQVPCFASMLTKKLHFFPKSN |  |  |  |  | ratios of about 1.0 | did not interfere with substrate cleavage by caspase-1, caspase-6 or caspase-8, even when added at a 50-fold molar excess
3 | purified recombinant caspase-1 (protein) NPAMPTSSGSEGNVKLCSLEEAQRIWKQKSAEIYPIMDKSSRTRLALIICNEEFDSIPRRTGAEVDITGMTMLLQNLGYSVDVKKNLTASDMTTELEAFAHRPEHKTSDSTFLVFMSHGIREGICGKKHSEQVPDILQLNAIFNMLNTKNCPSLKDKPKVIIIQACRGDSPGVVWFKDSVGVSGNLSLPTTEEFEDDAIKKAHIEKDFIAFCSSTPDNVSWRHPTMGSVFIGRLIEHMQEYACSCDVEEIFRKVRFSFEQPDGRAQMPTTERVTLTRCFYLFPGH |  |  |  |  |  | did not interfere with substrate cleavage by caspase-1, caspase-6 or caspase-8, even when added at a 50-fold molar excess
4 | purified recombinant active caspase-8 (catalytic subunit, Ser 217 to the C-terminus, His6-tagged) (protein) SESQTLDKVYQMKSKPRGYCLIINNHNFAKAREKVPKLHSIRDRNGTHLDAGALTTTFEELHFEIKPHDDCTVEQIYEILKIYQLMDHSNMDCFICCILSHGDKGIIYGTDGQEAPIYELTSQFTGLKCPSLAGKPKVFFIQACQGDNYQKGIPVETDSEEQPYLEMDLSSPQTRYIPDEADFLLGMATVNNCVSYRNPAEGTWYIQSLCQSLRERCPRGDDILTILTEVNYEVSNKDDKKNMGKQMPQPTFTLRKKLVFPSD |  |  |  |  | ratios of about 1.0 | did not interfere with substrate cleavage by caspase-1, caspase-6 or caspase-8, even when added at a 50-fold molar excess
